This note sets out measurements from patent publication US20040170619, “Gene regulation” (published 2004).

Data set [1] deals with EPOb-a-VP64 six-zinc-finger activator (synthetic construct). The data set is described as follows: ELONA; binds tightly and specifically; 50 uM ZnCl2, PBS pH 7.0, salmon sperm competitor DNA; values only in figure. The conditions noted are these: tags: SV40 NLS, VP64, c-myc 9E10, C-terminal HA for ELISA; label: biotin. How it is done: (§1) DNA binding reactions contain the appropriate zinc finger peptide, biotinylated binding site (10 nM) and 5 μg competitor DNA (sonicated salmon sperm DNA), in a total volume of 50 μl, which contained: 1×PBS (pH 7.0), 1.25×10⁻³ U high affinity anti-HA-Peroxidase antibody (Boehringer Mannheim), 50 μM ZnCl₂, 0.01 mg/ml BSA, and 0.5% Tween 20. Incubations are performed at room temperature for 40 minutes. Black streptavidin-coated wells are blocked with 4% marvel for 1 hour. Binding reactions are added to the streptavidin-coated wells and incubated for a further 40 minutes at room temperature. Wells are washed 5 times in 100 μl wash buffer (1×PBS (pH 7.0), 50 µM ZnCl₂, 0.01 mg/ml BSA, and 0.5% Tween 20), and finally 50 μl QuantaBlu peroxidase substrate solution (Pierce) is added to detect bound HA-tagged zinc finger peptide. ELISA signals are read in a SPECTRAmax GeminiXS spectrophotometer (Molecular Devices) and analysed using SOFTmax Pro 3.1.2 (Molecular Devices).
For orientation: An ELISA detects its analyte on a solid surface through an enzyme-linked reagent.

The target in data set [2] is TNFR1-4-2 six-zinc-finger DNA-binding domain (synthetic construct). The data set is described as follows: ELONA; high affinity and specificity; 50 uM ZnCl2, PBS pH 7.0, 10 nM site, salmon sperm competitor DNA, room temperature. The conditions noted are these: may carry C-terminal NLS-KOX1-c-myc in the ELISA construct; label: biotin. On the procedure:
as §1

Sequence of TNFR1-4-2 six-zinc-finger DNA-binding domain (synthetic construct) (chain, as listed by the source): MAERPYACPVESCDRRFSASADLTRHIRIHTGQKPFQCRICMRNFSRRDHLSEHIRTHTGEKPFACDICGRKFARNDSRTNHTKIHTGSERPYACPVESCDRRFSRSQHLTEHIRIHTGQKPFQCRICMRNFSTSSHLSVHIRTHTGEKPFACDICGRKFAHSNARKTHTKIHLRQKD

B1: EPO B-A target site (dsDNA)
DNA 1: TCTGGGGTGGGGGCTGGG
DNA 2: CCCAGCCCCCACCCCAGA
As for B1, the binding result in data set [1] is listed as “binds”.

B2: TNFR1-4-2 target site (dsDNA)
DNA 1: GTCGGATTGGTGGGTTGGGGGCACAAGGCA
DNA 2: TGCCTTGTGCCCCCAACCCACCAATCCGAC
For B2, in data set [2], the binding result was “binds”.
